The target in one assay is T1, DEAD-box helicase 53 (human, UniProt Q86TM3 1-631).
T1 construct: also called DDX53

Assay [1] concerns the target T2, kelch like ECH associated protein 1, transcript variant 1 (human, UniProt Q14145 1-624).
T2 construct: on protein array; also called KEAP1
The experiment in a line: protein array.

The next assay addresses T3, cancer/testis antigen 1A (human, UniProt P78358 1-180).
T3 construct: on protein array; also called CTAG1A
Nature of the assay: protein array.

Assay [2] has as its target T4, aarF domain containing kinase 5 (human, UniProt Q3MIX3 1-580).
T4 construct: on protein array; also called ADCK5
Nature of the assay: protein array.

The target of assay [3] is T5, DIX domain containing 1, transcript variant 2 (human, UniProt Q155Q3 220-683).
T5 construct: on protein array; also called DIXDC1
T5 sequence: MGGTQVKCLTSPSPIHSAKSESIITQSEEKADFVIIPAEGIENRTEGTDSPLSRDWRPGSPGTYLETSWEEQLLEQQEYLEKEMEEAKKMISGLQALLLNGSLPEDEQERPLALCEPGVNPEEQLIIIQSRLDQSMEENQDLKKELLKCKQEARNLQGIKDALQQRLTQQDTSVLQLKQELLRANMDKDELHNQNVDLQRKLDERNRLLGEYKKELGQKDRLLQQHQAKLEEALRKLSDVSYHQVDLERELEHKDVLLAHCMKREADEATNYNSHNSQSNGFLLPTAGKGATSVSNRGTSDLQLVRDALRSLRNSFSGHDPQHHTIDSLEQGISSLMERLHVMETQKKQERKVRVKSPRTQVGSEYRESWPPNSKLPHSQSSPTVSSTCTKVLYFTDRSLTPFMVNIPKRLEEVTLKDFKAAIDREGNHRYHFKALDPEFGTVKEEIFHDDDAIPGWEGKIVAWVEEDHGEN
Nature of the assay: protein array.

Assay [4] addresses T6, quinoid dihydropteridine reductase, transcript variant 1 (human, UniProt P09417 2-244).
T6 construct: on protein array; also called QDPR
T6 sequence: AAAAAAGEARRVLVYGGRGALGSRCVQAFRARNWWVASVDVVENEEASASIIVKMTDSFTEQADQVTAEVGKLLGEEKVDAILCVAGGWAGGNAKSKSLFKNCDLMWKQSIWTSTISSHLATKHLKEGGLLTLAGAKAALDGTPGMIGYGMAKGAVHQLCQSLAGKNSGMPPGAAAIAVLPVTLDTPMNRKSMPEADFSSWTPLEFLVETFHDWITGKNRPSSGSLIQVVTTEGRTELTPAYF
Nature of the assay: protein array.

The target of assay [5] is T7, quinoid dihydropteridine reductase, transcript variant 1 (human, UniProt P09417 2-244).
T7 construct: HuProt array protein, full-length recombinant from yeast; also called QDPR
T7 sequence: T6 sequence

Assay [6] has as its target T8, influenza virus NS1A binding protein (human, UniProt Q9Y6Y0 1-642).
T8 construct: on protein array; also called IVNS1ABP
T8 sequence: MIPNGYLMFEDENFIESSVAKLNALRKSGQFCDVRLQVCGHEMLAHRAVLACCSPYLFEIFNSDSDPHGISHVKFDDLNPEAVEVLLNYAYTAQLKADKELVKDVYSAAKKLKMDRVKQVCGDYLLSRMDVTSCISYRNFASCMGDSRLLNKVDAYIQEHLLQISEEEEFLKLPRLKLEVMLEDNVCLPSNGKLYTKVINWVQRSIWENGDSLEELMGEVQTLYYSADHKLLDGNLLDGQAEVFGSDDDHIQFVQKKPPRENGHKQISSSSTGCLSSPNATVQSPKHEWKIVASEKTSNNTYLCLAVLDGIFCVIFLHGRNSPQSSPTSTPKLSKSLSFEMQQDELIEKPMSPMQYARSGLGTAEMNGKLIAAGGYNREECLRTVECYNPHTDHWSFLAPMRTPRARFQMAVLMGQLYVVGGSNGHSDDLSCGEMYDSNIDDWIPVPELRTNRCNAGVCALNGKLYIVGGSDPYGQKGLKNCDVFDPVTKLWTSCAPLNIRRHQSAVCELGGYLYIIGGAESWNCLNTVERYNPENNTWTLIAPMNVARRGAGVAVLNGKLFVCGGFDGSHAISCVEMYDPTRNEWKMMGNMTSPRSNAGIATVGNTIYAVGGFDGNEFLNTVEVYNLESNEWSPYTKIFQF
The experiment in a line: protein array.

Assay [7] addresses T9, ubiquilin 1, transcript variant 2 (human, UniProt Q9UMX0 2-589).
T9 construct: HuProt array protein, full-length recombinant from yeast; also called UBQLN1
T9 sequence (Q9UMX0 other isoform, or with tags, fused parts or gaps mutant limits assumed): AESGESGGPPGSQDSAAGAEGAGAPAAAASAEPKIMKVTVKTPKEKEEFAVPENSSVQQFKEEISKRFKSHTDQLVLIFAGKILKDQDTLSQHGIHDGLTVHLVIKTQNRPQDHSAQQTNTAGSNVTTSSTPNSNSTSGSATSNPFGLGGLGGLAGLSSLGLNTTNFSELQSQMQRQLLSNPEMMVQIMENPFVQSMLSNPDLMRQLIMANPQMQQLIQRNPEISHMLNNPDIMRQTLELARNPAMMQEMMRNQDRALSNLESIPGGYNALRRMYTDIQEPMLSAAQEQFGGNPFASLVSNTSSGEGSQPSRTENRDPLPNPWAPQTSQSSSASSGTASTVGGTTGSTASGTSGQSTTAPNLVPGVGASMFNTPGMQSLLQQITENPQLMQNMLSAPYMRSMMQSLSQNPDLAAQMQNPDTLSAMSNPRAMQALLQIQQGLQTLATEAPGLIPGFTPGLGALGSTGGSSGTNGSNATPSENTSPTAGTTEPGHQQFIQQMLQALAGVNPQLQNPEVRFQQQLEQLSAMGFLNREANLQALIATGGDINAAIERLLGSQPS

In assay [8] the target is T10, ubiquilin 1, transcript variant 2 (human, UniProt Q9UMX0 2-589).
T10 construct: on protein array; also called UBQLN1
Nature of the assay: protein array.
T10 sequence (Q9UMX0 other isoform, or with tags, fused parts or gaps mutant limits assumed): as above

Positions count from the first letter of the chain named. Read-outs that look alike come from different tables or passages of the source.

T2 sequence (Q14145 whole entry, change not shown): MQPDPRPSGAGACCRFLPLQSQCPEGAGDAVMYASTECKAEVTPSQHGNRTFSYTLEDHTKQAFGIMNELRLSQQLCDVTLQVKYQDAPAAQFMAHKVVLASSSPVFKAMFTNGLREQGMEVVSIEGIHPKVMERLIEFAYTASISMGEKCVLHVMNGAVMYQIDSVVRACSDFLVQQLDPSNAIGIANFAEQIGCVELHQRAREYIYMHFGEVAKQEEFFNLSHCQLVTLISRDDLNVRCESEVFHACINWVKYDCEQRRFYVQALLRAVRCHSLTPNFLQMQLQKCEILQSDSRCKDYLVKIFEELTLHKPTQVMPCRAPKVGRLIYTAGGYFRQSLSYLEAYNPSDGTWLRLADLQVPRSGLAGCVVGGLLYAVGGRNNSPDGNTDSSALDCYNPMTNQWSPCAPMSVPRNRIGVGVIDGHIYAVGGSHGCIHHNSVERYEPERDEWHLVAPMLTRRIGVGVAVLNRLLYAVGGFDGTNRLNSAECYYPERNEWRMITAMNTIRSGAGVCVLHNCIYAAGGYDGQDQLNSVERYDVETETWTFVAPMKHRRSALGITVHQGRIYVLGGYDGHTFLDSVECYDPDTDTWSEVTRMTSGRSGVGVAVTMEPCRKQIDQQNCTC
T3 sequence (P78358 whole entry): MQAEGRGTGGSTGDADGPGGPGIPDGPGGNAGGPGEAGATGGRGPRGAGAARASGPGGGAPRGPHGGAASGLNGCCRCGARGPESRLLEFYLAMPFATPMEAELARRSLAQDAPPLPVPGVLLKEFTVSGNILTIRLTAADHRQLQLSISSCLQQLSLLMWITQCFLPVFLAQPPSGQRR
T1 sequence (Q86TM3 other isoform, or with tags, fused parts or gaps limits assumed): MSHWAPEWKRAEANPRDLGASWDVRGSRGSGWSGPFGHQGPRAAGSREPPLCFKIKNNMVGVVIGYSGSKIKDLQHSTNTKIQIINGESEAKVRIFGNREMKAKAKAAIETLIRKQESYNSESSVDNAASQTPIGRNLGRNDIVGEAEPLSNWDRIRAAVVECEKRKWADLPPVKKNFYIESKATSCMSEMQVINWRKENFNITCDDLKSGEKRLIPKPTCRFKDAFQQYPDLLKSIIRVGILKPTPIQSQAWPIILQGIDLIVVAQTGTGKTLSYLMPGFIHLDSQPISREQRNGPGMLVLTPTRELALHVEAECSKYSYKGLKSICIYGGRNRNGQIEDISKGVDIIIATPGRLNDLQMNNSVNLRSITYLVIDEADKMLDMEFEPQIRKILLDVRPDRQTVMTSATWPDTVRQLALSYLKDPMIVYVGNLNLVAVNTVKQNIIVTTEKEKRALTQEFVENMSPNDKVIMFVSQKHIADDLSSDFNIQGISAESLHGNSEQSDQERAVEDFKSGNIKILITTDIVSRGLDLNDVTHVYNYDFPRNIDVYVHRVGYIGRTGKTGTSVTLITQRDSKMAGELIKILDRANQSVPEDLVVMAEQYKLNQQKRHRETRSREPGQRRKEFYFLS
T4 sequence (Q3MIX3 other isoform, or with tags, fused parts or gaps limits assumed): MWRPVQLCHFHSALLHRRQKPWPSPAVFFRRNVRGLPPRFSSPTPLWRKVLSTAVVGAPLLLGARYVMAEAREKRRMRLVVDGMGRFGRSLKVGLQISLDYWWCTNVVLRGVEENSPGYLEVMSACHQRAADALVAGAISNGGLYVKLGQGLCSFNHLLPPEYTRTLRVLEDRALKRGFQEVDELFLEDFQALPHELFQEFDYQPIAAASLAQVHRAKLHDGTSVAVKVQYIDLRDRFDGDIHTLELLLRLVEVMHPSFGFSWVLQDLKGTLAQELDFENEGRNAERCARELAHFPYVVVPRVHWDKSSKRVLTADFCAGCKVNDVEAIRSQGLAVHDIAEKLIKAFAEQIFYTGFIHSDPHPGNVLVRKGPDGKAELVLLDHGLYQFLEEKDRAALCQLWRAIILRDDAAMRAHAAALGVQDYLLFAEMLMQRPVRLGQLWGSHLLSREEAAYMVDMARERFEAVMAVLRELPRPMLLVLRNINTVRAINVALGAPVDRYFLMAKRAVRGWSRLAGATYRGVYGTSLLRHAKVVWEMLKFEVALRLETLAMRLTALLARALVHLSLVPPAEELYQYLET

B1: TSAR1004 (antibody, V domains shown)
VH: QVQLQESGPGLVKPSETLSLTCSVSGDSFSDYYWSWTRQSPGKGLEWLGYMFYGGSTNYNPSLKSRLTMSVDTSKKHVYLKLSSVTAADTAVYYCAASGYGDHVAYWGQGTLVTVSS
VL: DIVMTQSPDSLAVSLGERATLNCKSSQSVLSSYNNKDYLAWFQQKPGQPPQLLFYWASTRKTGVPDRFSGSGSGTDFTLTISSLQTEDVAVYYCQQYYSTPYTFGQGTKLEIK
For the molecule B1, in the assay with DEAD-box helicase 53, the binding result was “binds”.

B2: TCOL1007 (antibody, V domains shown)
VH: PVQLVESGGGVVQPGRSLRLSCAASGFTFSNYGMHWVRQAPGKGLEWVAVISDDGNDKDNADSVKGRFTISRDNSKNTLYLRMNSLRREDTAVYYCARDGFDYWGQGTLVTVSS
VL: DIVMTQTPLSMPVTPGEPASISCRSSQSLLDSDDGKTYLDWYLQKPGQSPQLLIYTVSYRASGVPDRFSGSGSGTDFTLKISRVEAEDVGVYYCMQRIEFPFTFGPGTKVDIKR
notes: VH/VL only
For the molecule B2, the binding result in assay [1] is given as “binds”.

B3: TBLA1012 (antibody, V domains shown)
VH: LLQLVESGGGVVQPGRSLRLSCAASGFTFTRHGFHWVRQAPGKGLEWVAVISSDGRKIHYTDSVKGRFVISRDDSDNTVYLHMNSLRLGDTALYYCARDSGGTPGPYWGQGTLVTVSS
VL: DVVMTQSPLSLPVTLGQPASISCRSSQSLVHSDGNTYLNWFQQRPGQSPRRLIYMVSNRDSGVPDRFSGSGSGTDFTLKISRVEAEDVGVYYCLQGTHWPPTIGQGTKVEIE
notes: VH/VL only
Take B3: the binding result with cancer/testis antigen 1A is given as “binds”.

B4: TBRE1052 (antibody, V domains shown)
VH: PVQLIQSGAEVRKPGASVKVSCKVSGYTLSELSLHWVRQAPGKGLEWMGTFDPEDGETVYAQKFQGRVTVTEDTSTDTAYIDLSSLKSEDTAVYYCATDGPLHTSGLDYWGQGTLVTVSS
VL: EIVLTQSPATLSLSPGERATLSCRASQSISSNLAWYQQKPGQAPRLLIYDASNRATGIPARFSGSGSGTDFTLTISSLEPEDFAVYYCQQHSNWPELTFGGGTKVEIKR
notes: VH/VL only
B4: in [1], the binding result is “binds”.

B5: TTHY1004 (antibody, V domains shown)
VH: PVQLQESGPGLVKPSQTLSLTCTVSGGSISSGTYYWSWIRQPAGKGLEWIGRIYASGSTNYNPSLKSRVTISVDTSKNQFSLKLTSVTAADTAVYYCARYSGSYPLGFDYWGQGTLVTVSS
VL: DIQMTQSPSSLSASVGDRVTITCRASQSISTYLNWYQQKPGMAPKLLIYAASTLQSGVPSRFSGSGSATDYTLTISSLQPEDFATYYCQQSYNTPLTFGGGTKVDIKR
notes: VH/VL tied via antigen in summary, not by name in this stretch
With B5, in the assay with cancer/testis antigen 1A, the binding result is “binds”.

B6: TTES1009 (antibody, V domains shown)
VH: EVQLVESGGGLVQPGGSLRLSCAASGFTFSSYEMNWVRQAPGKGLEWVSYISSSGSTIYYADSVKGRFTISRDNAKNSLYLQMNSLRAEDTAVYYCARRGFYYYYGMDVWGQGTTVTVSS
VL: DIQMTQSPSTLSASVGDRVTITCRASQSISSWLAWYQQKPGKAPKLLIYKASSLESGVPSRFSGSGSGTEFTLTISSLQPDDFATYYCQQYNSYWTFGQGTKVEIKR
notes: as for B5
B6: in assay [2], the binding result was “binds”.

B7: TTES1010 (antibody, V domains shown)
VH: EVQLVESGGGLVQPGGSLRLSCAASGFTFSSYSMNWVRQAPGKGLEWVSYISSSSSTIYYADSVKGRFTISRDNAKNSLYLQMNSLRAEDTAVYYCASLLGGDPDYWGQGTLVTVSS
VL: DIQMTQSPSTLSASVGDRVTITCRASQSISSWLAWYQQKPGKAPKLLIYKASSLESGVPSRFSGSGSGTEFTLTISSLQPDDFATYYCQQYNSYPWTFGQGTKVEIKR
notes: as for B5
On to B7, for which the binding result in assay [3] is recorded as “binds”.

B8: TLUS1001 (antibody, V domains shown)
VH: QVQLQESGPGLVKPSETLSLTCTVSGDSISSNYWSWIRQPPGKGLEWIGYIYYSGSTNYNPSLKSRVTISVDTSKNQFSVKLSSVTAADTAVYYCARYGDYSFDPWGQGTLVTVSS
VL: not shown
notes: as for B5
With B8, the binding result in [4] is “binds”.

B9: TLUS1001 (antibody, V domains shown)
VH: B8 VH
VL: not shown
notes: detected with anti-human IgG Fc
For B9, in [5], the binding result is listed as “binds”.

B10: TCER1004 (antibody, V domains shown)
VH: VVQLVESGGGLVQPGGSLRLSCAASGFTFSSYSMNWVRQAPGKGLEWLSYVSSSGSTMYYADSVKGRFTISRDTAKNSLFLQMNSLRAEDTAVYYCAKGGPLRPFDIWGQGTLVTVSS
VL: VIQMTQSPTSLSASVGDRVTITCRASQSISSYLNWYQQKLGKAPKLLIYAASSLQSGVPSRFSGSGSGTDFTLTISSLQPEDFATYYCQQSYSTSLTFGGGTKVEIKR
notes: VH/VL only
With B10, the binding result in [6] is given as “binds”.

B11: THNS1008 (antibody, V domains shown)
VH: QVQLQESGPGLVKPSQTLSLTCAVSGGSISSGGYPWSWIRQPPGKGLEWIGYISYSGSTDYNPSLKSRVTISLDTSSNQFSLNLSSLTAADTAVYYCARGAAFYYGMDVWGQGTTVTVSS
VL: B10 VL with V1D, T9S, S31T, L40P, A50V, S77G, S95P, L96Y, G100Q, V104L
notes: VH/VL only
Take B11: the binding result in [1] was “binds”.

B12: TTES1001 (antibody, V domains shown)
VH: PVQLVQSGAEVKKPGSSVQVSCKGSGGTFSEYGISWLRQAPGQGLEWIGGIIPVLGIPNYAQKFRGRVTITADESTGSAYMEVSSLRSEDTAVYYCAREGLRLARGWFHPWGQGTLVTVTS
VL: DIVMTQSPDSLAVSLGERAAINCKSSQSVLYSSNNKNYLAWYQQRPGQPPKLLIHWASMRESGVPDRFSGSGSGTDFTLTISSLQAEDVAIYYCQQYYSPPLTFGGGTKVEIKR
notes: as for B5
Take B12: the binding result in assay [3] was “binds”.

B13: TKIC1002 (antibody, V domains shown)
VH: PVQLQESGPGLVKPSETLSLTCTVSGGSISSYYWSWIRQPPGKGLEWIGYLFYSGSTNYNPSLKSRVTISVDTSKNQFSLKLGSVTAADTAVYYCARHRIFGLDVWGQGTTVTVSS
VL: EIVLTQSPGTLSLSLGERATLSCRASQSVSGSHLAWYQQKPGQAPRLLIYDASSRATGIPDRFSGSGSGTEFTLTISRLEPEDFAVYYCQQYGSSPLWFGQGTKVEIK
notes: VH/VL only
For the molecule B13, in assay [2], the binding result is “binds”.

B14: TBRE1030 (antibody, V domains shown)
VH: QVQLQESGPGLVKPSQTLSLTCTVSGGSISSGGYYWSWIRQHPGKGLEWIGYIYYSGSTYYNPSLKSRVTISVDTSKNQFSLKLSSVTAADTAVYYCARDLSCSSTSCHDAFDIWGQGTMVTVSS
VL: not shown
notes: as for B9
As for B14, the binding result in assay [7] is given as “binds”.

B15: TBRE1030 (antibody, V domains shown)
VH: B14 VH
VL: not shown
notes: VH/VL only
As for B15, the binding result in [8] was “binds”.

B16: TOVA1001 (antibody, V domains shown)
VH: HVQLVQSGSELKKPGASVKLSCKASGYTFTNYAMNWVRQAPGQGLEWMGWINTNTGNPTYAQGFTGRFVFSLDTSVSTAYLQISSLKAEDTALYYCARDRPGDYWGQGTLVTVSS
VL: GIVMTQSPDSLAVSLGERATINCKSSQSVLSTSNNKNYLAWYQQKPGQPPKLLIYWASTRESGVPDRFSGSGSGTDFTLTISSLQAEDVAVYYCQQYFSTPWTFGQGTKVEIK
For B16, the binding result with DEAD-box helicase 53 was “binds”.

B17: TMEL1034 (antibody, V domains shown)
VH: QLQLQESGPGLVKPWETLSLSCTVSGGSISSSFFYWGWIRQPPGKGLQWIGNIHYTGSTYYNPSLKSRITMSVDTSKNQFSLKLSSVTAADTAVYYCARHRVGDSPGLHYWGQGTLVTVSS
VL: SYELTQPPSVSVSPGQTARITCSGDALPKKYAFWYQQKSGQAPVLVIYEDSKRPSGIPERFSGSSSGTMATLTISGAQVEDESDYYCYSTDSSGNVWVFGGGTKLTVLG
notes: as for B5
Turning to B17, the binding result in [4] is “binds”.

The record behind these values is patent publication US20220204643A1 (published 2022).
